# Results as given in patent publication US20110038894A1 (NATIONAL HEALTH RESEARCH INSTITUTES, published 2011).
# Target: His-tag fused human HLA-A2 heavy chain (His-HLA-A2) with His-Tag fused human β2-microglobulin (His-β2) (human)
# Assay: MHC-peptide complex formation assay: refolding of His-HLA-A2, His-β2m and peptide, sandwich ELISA (W6/32 capture, anti-β2m detection), relative to positive control peptide
row,Binder,Relative binding (%)
1,"VINGVLGGI (also called TAL6 181-189) [TAL6 peptide No. 16 of Table 1, VINGVLGGI]",59.1%
2,"ALGGIEFIL (also called TAL6 168-176) [TAL6 peptide No. 14 of Table 1, ALGGIEFIL]",113%
3,"IVGGGLLML (also called TAL6 53-61) [TAL6 peptide No. 4 of Table 1, IVGGGLLML]",43.4%
4,"AMLSSVLAA (also called TAL6 89-97) [TAL6 peptide No. 7 of Table 1, AMLSSVLAA]",115%
5,"SLFSILLAL (also called TAL6 161-169) [TAL6 peptide No. 12 of Table 1, SLFSILLAL]",42.6%
6,"CLIQVINGV (also called TAL6 177-185) [TAL6 peptide No. 15 of Table 1, CLIQVINGV]",26.3%
7,"MLSSVLAAL (also called TAL6 90-98) [TAL6 peptide No. 8 of Table 1, MLSSVLAAL]",163%
8,"MLLPAFVFI (also called TAL6 60-68) [TAL6 peptide No. 6 of Table 1, MLLPAFVFI]",155%
9,"CIGHSLVGL (also called TAL6 9-17) [TAL6 peptide No. 1 of Table 1, CIGHSLVGL]",93.3%
10,"SLVGLALLC (also called TAL6 13-21) [TAL6 peptide No. 2 of Table 1, SLVGLALLC]",126%
11,"GLAEGPLCL (also called TAL6 114-122) [TAL6 peptide No. 10 of Table 1, GLAEGPLCL]",72.4%
12,"SILLALGGI (also called TAL6 164-172) [TAL6 peptide No. 13 of Table 1, SILLALGGI]",51.8%
13,"HIVEWNVSL (also called TAL6 154-162) [TAL6 peptide No. 11 of Table 1, HIVEWNVSL]",91.1%
14,"SVLAALIGI (also called TAL6 93-101) [TAL6 peptide No. 9 of Table 1, SVLAALIGI]",158%
15,"LLMLLPAFV (also called TAL6 58-66) [TAL6 peptide No. 5 of Table 1, LLMLLPAFV]",134%
16,"ALLCIAANI (also called TAL6 18-26) [TAL6 peptide No. 3 of Table 1, ALLCIAANI]",53.6%
